Test results: publication PMC6201732 (Protein Science : A Publication of the Protein Society, 2018)

B1: Chlamydia muridarum native major outer membrane protein (nMOMP), from adherent HeLa 229 cells (natural protein)
chain: LPVGNPAEPSLMIDGILWEGFGGDPCDPCTTWCDAISLRLGYYGDFVFDRVLKTDVNKQFEMGAAPTGDADLTTAPTPASRENPAYGKHMQDAEMFTNAAYMALNIWDRFDVFCTLGATSGYLKGNSAAFNLVGLFGRDETAVAADDIPNVSLSQAVVELYTDTAFAWSVGARAALWECGCATLGASFQYAQSKPKVEELNVLCNAAEFTINKPKGYVGQEFPLNIKAGTVSATDTKDASIDYHEWQASLALSYRLNMFTPYIGVKWSRASFDADTIRIAQPKLETSILKMTTWNPTISGSGIDVDTKITDTLQIVSLQLNKMKSRKSCGLAIGTTIVDADKYAVTVETRLIDERAAHVNAQFRF
B2: Chlamydia trachomatis Serovar D native major outer membrane protein (nMOMP), from adherent HeLa 229 cells (natural protein)
chain: LPVGNPAEPSLMIDGILWEGFGGDPCDPCATWCDAISMRVGYYGDFVFDRVLKTDVNKEFQMGAKPTTDTGNSAAPSTLTARENPAYGRHMQDAEMFTNAACMALNIWDRFDVFCTLGATSGYLKGNSASFNLVGLFGDNENQKTVKAESVPNMSFDQSVVELYTDTTFAWSVGARAALWECGCATLGASFQYAQSKPKVEELNVLCNAAEFTINKPKGYVGKEFPLDLTAGTDAATGTKDASIDYHEWQASLALSYRLNMFTPYIGVKWSRASFDADTIRIAQPKSATAIFDTTTLNPTIAGAGDVKTGAEGQLGDTMQIVSLQLNKMKSRKSCGIAVGTTIVDADKYAVTVETRLIDERAAHVNAQFRF
B3: Chlamydia trachomatis Serovar E native major outer membrane protein (nMOMP), from adherent HeLa 229 cells (natural protein)
chain: LPVGNPAEPSLMIDGILWEGFGGDPCDPCTTWCDAISMRMGYYGDFVFDRVLKTDVNKEFQMGDKPTSTTGNATAPTTLTARENPAYGRHMQDAEMFTNAACMALNIWDRFDVFCTLGASSGYLKGNSASFNLVGLFGDNENQSTVKTNSVPNMSLDQSVVELYTDTAFSWSVGARAALWECGCATLGASFQYAQSKPKVEELNVLCNAAEFTINKPKGYVGQEFPLALIAGTDAATGTKDASIDYHEWQASLALSYRLNMFTPYIGVKWSRASFDADTIRIAQPKSATAIFDTTTLNPTIAGAGDVKASAEGQLGDTMQIVSLQLNKMKSRKSCGIAVGTTIVDADKYAVTVETRLIDERAAHVNAQFRF
B4: Chlamydia trachomatis Serovar E native major outer membrane protein (nMOMP), from HeLa suspension cells (natural protein)
chain: LPVGNPAEPSLMIDGILWEGFGGDPCDPCTTWCDAISMRMGYYGDFVFDRVLKTDVNKEFQMGDKPTSTTGNATAPTTLTARENPAYGRHMQDAEMFTNAACMALNIWDRFDVFCTLGASSGYLKGNSASFNLVGLFGDNENQSTVKTNSVPNMSLDQSVVELYTDTAFSWSVGARAALWECGCATLGASFQYAQSKPKVEELNVLCNAAEFTINKPKGYVGQEFPLALIAGTDAATGTKDASIDYHEWQASLALSYRLNMFTPYIGVKWSRASFDADTIRIAQPKSATAIFDTTTLNPTIAGAGDVKASAEGQLGDTMQIVSLQLNKMKSRKSCGIAVGTTIVDADKYAVTVETRLIDERAAHVNAQFRF
B5: Chlamydia trachomatis Serovar E native major outer membrane protein (nMOMP), from CHO suspension cells (natural protein)
chain: LPVGNPAEPSLMIDGILWEGFGGDPCDPCTTWCDAISMRMGYYGDFVFDRVLKTDVNKEFQMGDKPTSTTGNATAPTTLTARENPAYGRHMQDAEMFTNAACMALNIWDRFDVFCTLGASSGYLKGNSASFNLVGLFGDNENQSTVKTNSVPNMSLDQSVVELYTDTAFSWSVGARAALWECGCATLGASFQYAQSKPKVEELNVLCNAAEFTINKPKGYVGQEFPLALIAGTDAATGTKDASIDYHEWQASLALSYRLNMFTPYIGVKWSRASFDADTIRIAQPKSATAIFDTTTLNPTIAGAGDVKASAEGQLGDTMQIVSLQLNKMKSRKSCGIAVGTTIVDADKYAVTVETRLIDERAAHVNAQFRF
B6: Chlamydia trachomatis Serovar F native major outer membrane protein (nMOMP), from adherent HeLa 229 cells (natural protein)
chain: LPVGNPAEPSLMIDGILWEGFGGDPCDPCTTWCDAISMRMGYYGDFVFDRVLKTDVNKEFEMGEALAGASGNTTSTLSKLVERTNPAYGKHMQDAEMFTNAACMTLNIWDRFDVFCTLGATSGYLKGNSASFNLVGLFGDGVNATKPAADSIPNVQLNQSVVELYTDTTFAWSVGARAALWECGCATLGASFQYAQSKPKIEELNVLCNAAEFTINKPKGYVGKEFPLDLTAGTDAATGTKDASIDYHEWQASLSLSYRLNMFTPYIGVKWSRASFDSDTIRIAQPRLVTPVVDITTLNPTIAGCGSVAGANTEGQISDTMQIVSLQLNKMKSRKSCGIAVGTTIVDADKYAVTVETRLIDERAAHVNAQFRF

Molecular target: the molecule itself
Assay: SEC-MALS

| Protein | stoichiometry N |
| --- | --- |
| B1 | 2.59 |
| B2 | 2.8 |
| B3 | 2.52 |
| B4 | 2.3 |
| B5 | 2.27 |
| B6 | 2.85 |
